Test results: paper PMC10321576 (2023)
Each block holds one binder with its values, some of them ahead of it. Bridge positions count the residues as written; N and C are the ends. Square brackets hold non-standard residues; d marks the D form. Ends that are not written are not given here. Lys(Me3) = C[N+](C)(C)CCCC[C@H](N)C(=O)O

T1: KDM7B PHD-finger (UniProt Q9UPP1-2 1-447)
T1 chain: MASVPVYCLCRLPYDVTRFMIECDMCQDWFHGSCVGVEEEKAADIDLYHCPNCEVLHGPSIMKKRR

T2: KDM5A PHD3 PHD-finger
T2 chain: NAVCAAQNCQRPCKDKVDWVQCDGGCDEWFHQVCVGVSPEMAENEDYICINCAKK

T3: KDM7C (PHF2) PHD-finger
T3 chain: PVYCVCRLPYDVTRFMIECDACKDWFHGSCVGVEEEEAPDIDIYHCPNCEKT

T4: KDM7A (KIAA1718) PHD-finger
T4 chain: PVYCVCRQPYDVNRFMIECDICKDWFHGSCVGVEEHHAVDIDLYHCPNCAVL

T5: ING2 PHD-finger
T5 chain: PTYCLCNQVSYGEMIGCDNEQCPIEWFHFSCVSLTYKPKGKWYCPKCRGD

T6: TAF3 PHD-finger
T6 chain: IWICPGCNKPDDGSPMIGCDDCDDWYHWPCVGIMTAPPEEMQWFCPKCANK

T7: DIDO1 PHD-finger
T7 chain: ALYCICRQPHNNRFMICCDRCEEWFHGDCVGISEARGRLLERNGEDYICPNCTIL

B1: KDM7B (PHF8, JHDM1F) dual domain (PHD-JmjC) (domain or fragment)
chain: MASVPVYCLCRLPYDVTRFMIECDMCQDWFHGSCVGVEEEKAADIDLYHCPNCEVLHGPSIMKKRRGSSKGHDTHKGKPVKTGSPTFVRELRSRTFDSSDEVILKPTGNQLTVEFLEENSFSVPILVLKKDGLGMTLPSPSFTVRDVEHYVGSDKEIDVIDVTRQADCKMKLGDFVKYYYSGKREKVLNVISLEFSDTRLSNLVETPKIVRKLSWVENLWPEECVFERPNVQKYCLMSVRDSYTDFHIDFGGTSVWYHVLKGEKIFYLIRPTNANLTLFECWSSSSNQNEMFFGDQVDKCYKCSVKQGQTLFIPTGWIHAVLTPVDCLAFGGNFLHSLNIEMQLKAYEIEKRLSTADLFRFPNFETICWYVGKHILDIFRGLRENRRHPASYLVHGGKALNLAFRAWTRKEALPDHEDEIPETVRTVQLIKDLAREIRLVEDIFQQN

Key:
KDM7B PHD-finger [1] = target: T1, KDM7B PHD-finger
OC3 = assay: ITC
[2] = target: B1
KDM5A PHD3 PHD-finger = target: T2, KDM5A PHD3 PHD-finger
KDM7C (PHF2) PHD-finger [3] = target: T3, KDM7C (PHF2) PHD-finger
[4] = target: T4, KDM7A (KIAA1718) PHD-finger
ING2 PHD-finger [5] = target: T5, ING2 PHD-finger
[6] = target: KDM7A (KIAA1718) dual domain
TAF3 PHD-finger [7] = target: T6, TAF3 PHD-finger
[8] = target: SPIN1 triple tudor domain
[9] = target: T4, KDM7A (KIAA1718) PHD-finger; assay: ITC
[10] = target: T4, KDM7A (KIAA1718) PHD-finger; assay: ITC
[11] = target: KDM7A (KIAA1718) dual domain; assay: ITC
KDM7B PHD-finger [12] = target: T1, KDM7B PHD-finger; assay: ITC; His-Trx-tagged PHD
KDM7C (PHF2) PHD-finger [13] = target: T3, KDM7C (PHF2) PHD-finger; assay: BLI
[14] = target: T4, KDM7A (KIAA1718) PHD-finger; assay: BLI
DIDO1 PHD-finger = target: T7, DIDO1 PHD-finger; assay: BLI
ING2 PHD-finger [15] = target: T5, ING2 PHD-finger; assay: BLI
[16] = target: KDM7A (KIAA1718) dual domain; assay: BLI
TAF3 PHD-finger [17] = target: T6, TAF3 PHD-finger; assay: BLI
[18] = target: SPIN1 triple tudor domain; assay: BLI

Sequence of KDM7A (KIAA1718) dual domain (chain, as listed by the source): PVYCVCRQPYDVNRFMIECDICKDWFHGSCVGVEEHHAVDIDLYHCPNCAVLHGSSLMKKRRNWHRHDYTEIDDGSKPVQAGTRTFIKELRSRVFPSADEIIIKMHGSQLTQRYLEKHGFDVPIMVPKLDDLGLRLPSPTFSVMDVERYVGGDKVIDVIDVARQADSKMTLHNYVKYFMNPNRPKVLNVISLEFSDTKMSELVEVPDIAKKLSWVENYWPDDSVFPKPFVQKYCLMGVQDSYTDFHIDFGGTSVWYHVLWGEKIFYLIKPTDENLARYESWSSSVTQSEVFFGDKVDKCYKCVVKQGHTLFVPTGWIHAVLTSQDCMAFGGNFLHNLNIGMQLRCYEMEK
Sequence of SPIN1 triple tudor domain (chain, as listed by the source): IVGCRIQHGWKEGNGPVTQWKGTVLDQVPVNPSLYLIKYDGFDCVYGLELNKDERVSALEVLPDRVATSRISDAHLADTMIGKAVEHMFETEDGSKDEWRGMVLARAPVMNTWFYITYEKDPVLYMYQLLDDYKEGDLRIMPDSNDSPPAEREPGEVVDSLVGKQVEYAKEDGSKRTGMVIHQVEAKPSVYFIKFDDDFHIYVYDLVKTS

IC50 (KDM7B PHD-finger [1]): 45 nM
Binder: YYL[dA]HPYPSVFRTC (ends and bridges not checked) [OC9 with T4 replaced with D-alanine]

IC50 (KDM7B PHD-finger [1]): 234 nM
Binder: YYLTHPYPS[Lys(Me3)]FRTC (ends and bridges not checked) [OC9 V10Kme3]

Binder: B1
Kd (OC3): 163 nM

IC50 (KDM7B PHD-finger [1]): 20 nM
Binder: YYLT[dA]PYPSVFRTC (ends and bridges not checked) [OC9 with H5 replaced with D-alanine]

IC50 [2]: 100 nM
IC50 (KDM5A PHD3 PHD-finger): > 5010 nM
IC50 (KDM7C (PHF2) PHD-finger [3]): 25.1 nM
IC50 [4]: 63.1 nM
IC50 (ING2 PHD-finger [5]): > 5010 nM
IC50 [6]: 126 nM
IC50 (TAF3 PHD-finger [7]): > 5010 nM
IC50 [8]: > 2000 nM
Kd [9]: 33 nM
Kd [10]: 31.6 nM
Kd [11]: 31.6 nM
Kd (KDM7B PHD-finger [12]): 8 nM
Kd (KDM7C (PHF2) PHD-finger [13]): 1 nM
Kd [14]: 20 nM
Kd (DIDO1 PHD-finger): > 1000 nM
Kd (ING2 PHD-finger [15]): > 1000 nM
Kd [16]: 39.8 nM
Kd (TAF3 PHD-finger [17]): > 1000 nM
Kd [18]: > 1000 nM
Binder: {CH2CO}-YYLTHPYPSVFRTC (thioether N-14) [OC9, de novo cyclic peptide from mRNA display]
